Results from article PMC10501626 (PLOS Pathogens, 2023).

Target: T1, LGP2 regulatory domain (LGP2 RD, residues 537–678), wild type (human, UniProt Q96C10 537-678, biotinylated (biotin added at 3:1 molar ratio) for biolayer interferometry)
T1 construct: also called LGP2 RD WT; WT
T1 sequence (looked up): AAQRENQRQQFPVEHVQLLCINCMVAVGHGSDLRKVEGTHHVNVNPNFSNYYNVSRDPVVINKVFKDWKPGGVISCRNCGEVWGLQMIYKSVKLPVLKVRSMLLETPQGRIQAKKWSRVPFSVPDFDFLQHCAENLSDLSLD
Experiment: BLI
Conditions: both partners purified

B1: TBEV NS5 protein, purified (natural protein)
chain: GGSEGDTLGDLWKRKLNGCTKEEFFAYRRTGILETERDKARELLKRGETNMGLAVSRGTAKLAWLEERGYATLKGEVVDLGCGRGGWSYYAASRPAVMSVKACAIAGKGHETPKMVTSLGWNLIKFRAGMDVFSMQPHRADTIMCDIGESNPDAVVEGERTRKVILLMEQWKNRNPTATCVFKALAPYRPEVTEALHRFQLQWGGGLVRTPFSRNSTHEMYYSTAITGNIVNSVNIQSRKLLARFGDQRGPTRVPELDLGVGTRCVVLAEDKVKEKDVQERISALREQYGETWHMDREHPYRTWQYWAATACANRVGGALINGVVKLLSWPWNAREDVVRMAMTDTTAFGQQRVFKEKVDTKAQEPQPGTKVIMRAVNDWILERLARKSKPRMCSREEFIAKVKSNAALGAWSDEQNRWSSAKEAVEDPAFWQLVDEERERHLAGRCAHCVYNMMGKREKKLGEFGVAKGSRAIWYMWLGSRFLEFEALGFLNEDHWASRGSSGSGVEGISLNYLGWHLKGLSTLEGGLFYADDTAGWDTKVTNADLEDEEQLLRYMEGEHKQLAATIMQKAYHAKVVKVARPSRDGGCIMDVITRRDQRGSGQVVTYALNTLTNIKVQLIRMMEGEGVIEASDAHNPRLLRVERWLRDHGEERLGRMLVSGDDCVVRPVDDRFSGALYFLNDMAKTRKDIGEWDHSVGFSNWEEVPFCSHHFHELVMKDGRTLIVPCRDQDELVGRARVSPGCGRSVRETACLSKAYGQMWLLSYFHRRDLRTLGLAICSAVPVDWVPAGRTTWSIHASGAWMTTEDMLDVWNRVWILDNPFMHSKEKIAEWRDVPYLPKSHDMLCSSLVGRKERAEWAKNIWGAVEKVRKMIGQEKFKDYLSCMDRHDLHWESKLESSII
Q: With B1 as the binder, how does the Kd read?
A: The Kd was 1200 ± 800 nM.
